According to paper PMC6330309, “Multispecific Antibody Development Platform Based on Human Heavy Chain Antibodies” (Frontiers in Immunology, 2018):

Target: T1, extracellular domain of human BCMA (Homo sapiens, UniProt Q02223)
T1 construct: B cell maturation antigen (BCMA), human, extracellular domain; PDB 4ZFO chain F was only the search model for molecular replacement; For the Octet experiments the methods say that antigens were either expressed in-house (ECD with His-tag) or commercially available
T1 sequence (Q02223 1-54): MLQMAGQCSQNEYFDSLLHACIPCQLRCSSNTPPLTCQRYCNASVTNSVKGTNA
Assay: crystal structure; BCMA and UniAb VH mixed at a 1:2 molar ratio for 20 min at 4°C, complex isolated by SEC (20 mM PBS, 250 mM NaCl); sitting drop vapor diffusion, 0.2 M sodium malonate pH 4.0, 20% PEG 3350; 2.6 Å; two complexes in the asymmetric unit
Conditions: both partners purified

B1: anti-BCMA UniAb VH (IgHV3-23) (VHH)
VHH: EVQLVESGGGLVQPGGSLRLSCAASGFTVSSYGMSWVRQAPGKGPEWVSGIRGSDGSTYYADSVKGRFTISRDNSKNTLYLQMNSLRAEDTAVYYCAKQGENDGPFDHRGQGTLVTVS
notes: fully human VH single domain (IgHV3-23) from a UniRat heavy chain-only antibody, with R109 in framework 4 (W101R, Kabat); Human VH used as a single domain, no light chain and no Fc; also called UniAb VH (VH3-23)
Q: Does B1 bind?
A: Result: binds
